The values below come from patent US20260022179A1 (CHINA MEDICAL UNIVERSITY, published 2026).

The target of experiment [1] is T1, full-length human EphA10 expressed on NIH 3T3 cells (human, UniProt Q5JZY3 34-1008).
T1 construct: whole, on cells; also called full-length human EphA 10-expressing NIH 3T3 cells
T1 sequence (looked up): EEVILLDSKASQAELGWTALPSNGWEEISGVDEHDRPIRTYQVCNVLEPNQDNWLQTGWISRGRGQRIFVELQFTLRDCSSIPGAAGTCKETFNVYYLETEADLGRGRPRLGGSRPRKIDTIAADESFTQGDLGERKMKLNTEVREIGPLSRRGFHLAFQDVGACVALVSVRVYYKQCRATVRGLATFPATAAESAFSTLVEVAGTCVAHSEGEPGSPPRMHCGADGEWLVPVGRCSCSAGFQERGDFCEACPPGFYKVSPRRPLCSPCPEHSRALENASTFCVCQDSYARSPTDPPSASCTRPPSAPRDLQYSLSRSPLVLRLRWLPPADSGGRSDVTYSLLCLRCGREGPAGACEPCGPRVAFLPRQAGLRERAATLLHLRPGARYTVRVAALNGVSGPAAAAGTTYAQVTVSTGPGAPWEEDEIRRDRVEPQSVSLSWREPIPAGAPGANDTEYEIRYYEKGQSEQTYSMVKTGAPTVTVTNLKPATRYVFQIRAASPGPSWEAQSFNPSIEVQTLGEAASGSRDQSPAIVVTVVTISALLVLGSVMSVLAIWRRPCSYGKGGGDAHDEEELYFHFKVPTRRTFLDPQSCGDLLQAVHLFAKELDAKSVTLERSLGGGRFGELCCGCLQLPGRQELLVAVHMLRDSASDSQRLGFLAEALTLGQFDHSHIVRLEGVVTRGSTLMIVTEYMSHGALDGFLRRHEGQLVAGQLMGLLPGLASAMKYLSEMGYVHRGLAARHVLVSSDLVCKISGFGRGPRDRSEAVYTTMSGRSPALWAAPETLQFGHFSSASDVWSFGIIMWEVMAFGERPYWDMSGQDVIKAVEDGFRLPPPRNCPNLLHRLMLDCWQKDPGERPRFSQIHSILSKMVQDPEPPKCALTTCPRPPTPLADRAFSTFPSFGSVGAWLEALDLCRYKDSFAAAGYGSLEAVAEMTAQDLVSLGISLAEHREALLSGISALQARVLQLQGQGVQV
The experiment can be described thus: FACS on transfected NIH 3T3 cells. An excerpt:
(§1) A human B cell-derived scFv phage display library (Creative BioLabs, USA) was used to pan against the recombinant human EphA10 extracellular domain protein (Glu34-Ala565), transcript variant 3, fused with DDK/His tag at C-terminal (Creative Biomart, USA, Catalog no. EPHA10-369H). Positive clones were screened using ELISA. A unique CMU #5 were identified by DNA sequencing. The binding specificity of the unique clones was confirmed by FACS using full-length human EphA 10-expressing NIH 3T3 cells.

Experiment [2] concerns the target T2, recombinant human EphA10 extracellular domain protein (Glu34-Ala565), transcript variant 3, fused with … (human, UniProt Q5JZY3 34-565).
T2 construct: range 34-565; Commercial protein used for panning and the screening ELISA; also called EPHA10-369H (Creative Biomart); not shown: C-terminal DDK/His tag
T2 sequence (looked up): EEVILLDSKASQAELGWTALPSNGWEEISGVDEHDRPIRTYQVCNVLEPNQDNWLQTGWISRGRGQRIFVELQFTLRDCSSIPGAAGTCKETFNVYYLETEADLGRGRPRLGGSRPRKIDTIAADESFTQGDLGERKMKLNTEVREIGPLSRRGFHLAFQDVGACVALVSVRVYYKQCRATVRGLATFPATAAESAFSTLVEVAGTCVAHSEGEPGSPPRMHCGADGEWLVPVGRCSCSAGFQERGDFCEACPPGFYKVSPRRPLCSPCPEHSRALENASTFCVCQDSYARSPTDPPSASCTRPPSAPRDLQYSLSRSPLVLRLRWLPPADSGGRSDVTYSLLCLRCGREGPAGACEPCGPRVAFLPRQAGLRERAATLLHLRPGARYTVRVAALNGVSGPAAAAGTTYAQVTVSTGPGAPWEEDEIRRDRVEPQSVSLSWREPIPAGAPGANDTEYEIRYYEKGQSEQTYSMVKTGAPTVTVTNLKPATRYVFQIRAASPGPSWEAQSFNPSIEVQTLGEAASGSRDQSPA
The experiment can be described thus: ELISA screen of phage display clones after panning on the recombinant protein.
Text: as §1
(In general: An ELISA detects its analyte on a solid surface through an enzyme-linked reagent.)

B1: CMU #5 scFv (clone from the human B cell-derived scFv phage display library) (scFv)
scFv: EVQLVQSGGGVVQPGGSLRLSCAASGFTFDDYAMHWVRQAPGKGLEWVAVISYDGSNKYYADSVKGRFTISRDNSKNTLYLQMNSLRAEDTAVYYCARDGLPAFDIWGKGTLVTVSSGGGGSGGGGSGGGGSEIVLTQSPATLSVSPGERAILSCRASQSVRSNLAWYQQKPGQPPRLVIYDASSRATGIPARFSGSGSGTDFTLTISSLEPEDFAAYYCQQYGSSQLTFGGGTKLEIKR
notes: This is the clone as screened after panning
Turning to B1, the binding result in experiment [1] and in experiment [2] was “binds” in each case.
